Columns and labels:
[1] = biological target: T1, GPC3 endogenously expressed on HepG2 cells (UniProt P51654 25-554); test: FACS on HepG2 cells;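 note: flow cytometric binding of chimeric antibodies to cells, read as mean fluorescence intensity, EC50 obtained by curve fitting of the MFI data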
T1 construct: whole, on cells

[2] = biological target: T2, human GPC3 on CHO-K1-human GPC3 cells (clone CHOK1-hGPC3.2B5) (human, UniProt P51654 25-554); test: FACS on CHOK1-hGPC3.2B5 cells;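 note: flow cytometry binding of chimeric antibodies to the cells, read out as mean fluorescence intensity, with the half-maximal concentration derived by curve fitting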
T2 construct: whole, on cells; Stably transfected CHO-K1 clone 2B5

human GPC3-His protein [3] = biological target: T3, human GPC3-His protein (human, UniProt P51654 25-559); test: ELISA, coated human GPC3, antibody 1 nM;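 note: antigen coated at 1 µg/mL on 96-well plates, antibody bound for 2 h at 37 °C, detected with HRP-labeled secondary antibody and TMB, absorbance read at 450 nm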
T3 construct: Bought protein; also called human GPC3 protein; not shown: His tag

human GPC3-His protein [4] = biological target: T3, human GPC3-His protein; test: ELISA, coated human GPC3, antibody 10 nM;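 note: plate coated with antigen at 1 µg/mL, antibodies bound 2 h at 37 °C, detected via HRP-conjugated secondary antibody and TMB substrate, absorbance read after acid stop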
Protocol: (§1) The specific method is described as follows: The antigen protein was diluted with PBS to a final concentration of 1 μg/mL, and the diluent was added to a 96-well ELISA plate at 50 μL/well. The plate was sealed with a plastic film and incubated at 4° C. overnight, washed twice with PBS the next day, and a blocking solution [PBS+2% (w/w) BSA] was added for blocking at room temperature for 2 h. […] After incubation at 37° C. for 2 h, the plate was washed 3 times with PBS. A horseradish peroxidase (HRP)-labeled secondary antibody (purchased from Merck, Cat. No. AP113P) was added for incubation at 37° C. for 1 h, and the plate was washed 5 times with PBS. A TMB substrate was added at 50 μL/well for incubation at room temperature for 10 min, then a stop solution (1.0M HCl) was added at 50 μL/well. An ELISA plate reader (Multimode Plate Reader, EnSight, purchased from Perkin Elmer) was used to read OD_{450 nm} values, with results as shown in Table 4 to Table 6, FIG. 1A, FIG. 1B, and FIG. 1C.

human GPC3-His protein [5] = biological target: T3, human GPC3-His protein; test: ELISA, coated human GPC3, antibody 0.1 nM;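 note: antigen coated on 96-well plates at 1 µg/mL, antibody bound 2 h at 37 °C, detected with HRP-labeled secondary antibody and TMB substrate, acid-stopped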
Protocol: as §1

human GPC3-His protein [6] = biological target: T3, human GPC3-His protein; test: ELISA, coated human GPC3, antibody 100 nM;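 note: antibodies bound to antigen-coated 96-well plates (1 µg/mL), 2 h at 37 °C, detected with HRP-labelled secondary antibody and TMB substrate, absorbance read at 450 nm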
human GPC3-His protein [7] = biological target: T3, human GPC3-His protein; test: ELISA, coated human GPC3, antibody 0.01 nM;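 note: Plate-bound antigen coated at 1 µg/mL, antibody incubated 2 h at 37 °C, binding detected by HRP-conjugated secondary antibody with TMB substrate, read as absorbance at 450 nm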
Protocol: as §1

human GPC3-His protein [8] = biological target: T3, human GPC3-His protein; test: ELISA, coated human GPC3, antibody 0.001 nM
human GPC3-His protein [9] = biological target: T3, human GPC3-His protein; test: ELISA, coated human GPC3, antibody 0.0001 nM

| Binder | EC50 [1] | Max MFI [1] | EC50 [2] | Max MFI [2] | OD450 nm (human GPC3-His protein [3]) | OD450 nm (human GPC3-His protein [4]) | OD450 nm (human GPC3-His protein [5]) | OD450 nm (human GPC3-His protein [6]) | OD450 nm (human GPC3-His protein [7]) | OD450 nm (human GPC3-His protein [8]) | OD450 nm (human GPC3-His protein [9]) |
| --- | --- | --- | --- | --- | --- | --- | --- | --- | --- | --- | --- |
| F1.62.9 human-murine chimeric antibody (antibody, human IgG1, kappa, V domains shown) VH: QVQLQQSDAELVKPGASVKISCKVSGYIFTDHTIHWMKQRPEQGLEWIGYIYPRDGSIKYNENFKGKATLTADKSSSATYMQLNSLTSEDSAVYFCARPIYYDYAYYFDYWGQGTTLTVSS VL: DVVMTQSPLSLPVSLGDQASISCRSRQSLVHSNGNTYLHWYLQKPGQSPKVLIYKVSNRFSGVPDRFSGSGSGTDFTLKISRVEAEDLGVYFCSQSTHVPYTFGGGTKLEIKR | 1.32 nM | 3250 MFI | 3.49 nM | 2160 MFI | 0.63 OD450 | 0.96 OD450 | 0.2 OD450 | 1.09 OD450 | 0.1 OD450 | 0.09 OD450 | 0.11 OD450 |
| F2.92.1 human-murine chimeric antibody (antibody, human IgG1, kappa, V domains shown) VH: QVQLQQSGAELVRPGASVKLSCKASGYIFSDYEIHWVKQTPVHGLECIGAVDPETGGTAYNQKFKGKATLTADKSSSTAYMELRSLTSEDSAVYFCTRFYSFAYWGQGTLVTVST VL: DVVMTQTPLSLPVSLGDQGSISCRSSQSLVHSNGNTYLQWYLQKPGQSPKLLIYKVSNRFSGVPDRFSGSGSGTDFTLKISRVEAEDLGVYFCCQSTHVLPTFGGGTKLEIKR | 0.92 nM | 14000 MFI | 0.92 nM | 29400 MFI | 2.24 OD450 | 2.23 OD450 | 1.23 OD450 | 2.45 OD450 | 0.32 OD450 | 0.12 OD450 | 0.11 OD450 |
| F2.23.8 human-murine chimeric antibody (antibody, human IgG1, kappa, V domains shown) VH: QVQLQQSGAELVRPGASVKLSCKASGYTFTDYEMHWVKQTPVHGLEWFGAIDPETGGTAYNQKFRAKATLTADKSSSTAYMELRSLTSEDSAVYYCTRFYSFAYWGQGTLVTVSA VL: DVVMTQTPLSLPVSLGDQASISCRSSQSLVHSNGNTYLQWYLQKPGQSPKLLIYKVSNRFSGVPDRFSGSGSGTDFTLKITRVEAEDLGVYFCSQSTHVPYTFGSGTKLEIKR | 1.64 nM | 11300 MFI | 1.48 nM | 23200 MFI | 2.16 OD450 | 2.35 OD450 | 1.28 OD450 | 2.51 OD450 | 0.29 OD450 | 0.12 OD450 | 0.1 OD450 |
| F2.39.2 human-murine chimeric antibody (antibody, human IgG1, kappa, V domains shown) VH: QVQLQQSGAELVRPGASVKVSCKASGYTFTDYEMHWMKQTPVHGLEWIGANEPETGRSAYDQKFKGKATLTADKSSSTAYMELRSLTSEDSAVYYCTRFYSFAYWGQGTLVTVSA VL: DVVMTQTPLSLPVSLGDQASISCRSSQGLVHNNGNTYLHWYLQKPGQSPKLLIYKVSNRFSGVPDRFSGSGSGTDFTLKISRVEAEDLGVYFCSQNTHVPPTFGGGTKLEIKR | 0.95 nM | 12700 MFI | 1 nM | 26500 MFI | 2.21 OD450 | 2.34 OD450 | 1.33 OD450 | 2.3 OD450 | 0.34 OD450 | 0.12 OD450 | 0.1 OD450 |
| F3.54.12 human-murine chimeric antibody (antibody, human IgG1, kappa, V domains shown) VH: QVQLQQSGAELVRPGASVKLSCKASGYTFTDYEMHWVKQTPVHGLEWIGAIDPETGNTAYIQKFKGKATLTTDKSSSTAYMELRSLTSEDSAVYYCTRFYSYSHWGQGTTLTVSS VL: DVVMTQTPLSLPVSLGDQASISCRSSQSLVHSNGNTYLHWYLQKPGQSPKLLIYKVSNRFSGVPDRFSGSSSGTDFTLKISRVEAEDLGVYFCSQNTHVPPTFGGGTKLEIKR | 0.83 nM | 4460 MFI | 0.72 nM | 15000 MFI | 2.29 OD450 | 2.41 OD450 | 1.58 OD450 | 2.44 OD450 | 0.48 OD450 | 0.15 OD450 | 0.13 OD450 |
| F2.55.11 human-murine chimeric antibody (antibody, human IgG1, kappa, V domains shown) VH: EVKLVESGGGLVKPGGSLKLSCAASGLTFSTCTMSWVRQTPAKRLEWVATISSGGGNTYYPDSVKGRFTISRDNARNTLYLQMSSLRSEDTAMYYCVRLYYDGSPYAMDYWGQGTSVTVSS VL: DIQMTQTTSSLSASLGDRVTISCRASQDISNHLNWYQQKPDGTVKLLIYYTSRLHSGVPSRFSGSGSGTDYSLTISNLEQEDIATYFCQQDSKPPPTFGSGTKLEIKR | 0.66 nM | 1630 MFI | 0.89 nM | 13600 MFI | 2.24 OD450 | 2.66 OD450 | 1.57 OD450 | 2.58 OD450 | 0.43 OD450 | 0.15 OD450 | 0.11 OD450 |
| F1.153.1 human-murine chimeric antibody (antibody, human IgG1, kappa, V domains shown) VH: QIQLVQSGPELKKPGETVKISCKASGYTFTTAGMQWVQKMPGKGFKWIGWINTHSGEPQYAEDFKGRFAFSLETSASTAYLQISNLKNEDTATYFCARSFYYHGSSFFYFDYWGQGTTLTVSS VL: DIVMTQSQKFMSTTVGDRVSITCKASQNVGTAVAWYQQKPGQSPKLLIYSASNRYTGVPDRFTGSGSGADFTLTISNMQSEDLADYFCQQYSRYPLTFGAGTKLELKR | 1.3 nM | 4100 MFI | 0.91 nM | 3080 MFI | 1.56 OD450 | 1.85 OD450 | 0.64 OD450 | 2.06 OD450 | 0.15 OD450 | 0.1 OD450 | 0.11 OD450 |
| F1.9.19 human-murine chimeric antibody (antibody, human IgG1, kappa, V domains shown) VH: DVQLQESGPGLVKPSQSLSLTCSVTGYSITSGYYWNWIRQFPGNRLEWMAYISYDGINNYNPSLKNRISIARDTSTNQFFLKLNSVTSEDTATYYCATTTEVALFDHWGQGTTLTVSS VL: DVLLTQTPLSLPVSLGDQASISCRSSQNIVHGNGNTYLEWFLQKPGQSPKLLIYKVSNRFSGVPDRFSGSGSGTDFTLKISRVEAEDLGLYYCFQASHVPWTFGGGTKLEIKR | 1.12 nM | 3780 MFI | 1.76 nM | 2700 MFI | 1.6 OD450 | 1.85 OD450 | 0.58 OD450 | 1.88 OD450 | 0.16 OD450 | 0.11 OD450 | 0.1 OD450 |
| F3.38.7 human-murine chimeric antibody (antibody, human IgG1, kappa, V domains shown) VH: QVQLQQSGAELVRPGASVKLSCKASGYTFTDYEIHWVKQTPVLGLEWIGAIDPKTGNTAYNQKFMGKATLTADKSSTTAYMDLRSLTSEDSAVYYCTRYFSFAYWGQGTLVTVSA VL: DVLMTQTPLSLPVSLGDQASISCRSSQTFVHSNGNTYLQWYLQKPGQSPKLLIYKVSNRFSGVPDRFSGSGSGTDFTLKISRVEAEDLGVYYCFQGSHVPYTFGSGTKLEIKR | 1.2 nM | 4980 MFI | 0.85 nM | 16200 MFI | 2.18 OD450 | 2.44 OD450 | 1.62 OD450 | 2.48 OD450 | 0.38 OD450 | 0.13 OD450 | 0.09 OD450 |
| F2.169.2 human-murine chimeric antibody (antibody, human IgG1, kappa, V domains shown) VH: EVQLVETGGGLVQPKGSLKLSCAASGFSFNTNAMNWVRQAPGKGLEWVARIRSKSNNYATYYADSVKDRFTISRDDSQSMLYLQMNNLKTEDTAMYYCVRDGYYVLFAYWGQGTLVTVSA VL: DVLMTQTPLSLPVSLGDQASISCRFSQSIVNSNGNTYLEWFLQKPGQSPKLLIYKVSNRFSGVPDRFSGSGSGTDFTLKISRVEAEDLGVYYCFQGSHVPFTFGTGTKLEIKR | 0.65 nM | 3980 MFI | 1.06 nM | 17300 MFI | 2.24 OD450 | 2.52 OD450 | 1.25 OD450 | 2.43 OD450 | 0.27 OD450 | 0.11 OD450 | 0.1 OD450 |
| F2.154.1 human-murine chimeric antibody (antibody, human IgG1, kappa, V domains shown) VH: QVQLQQSGAELVRPGASVKLSCKASGYRFTDYEMHWVKQTPVHGLEWIGTIDPETGNTAYTQKFMDKATLTADKSSSTAYMELRSLTSEDSAVYYCTRGYSFTYWGQGTLATVSA VL: DVLMTQTPLSLPVSLGDQASISCRSSQNIVHSNGNTYLQWYLQKPGQSPKLLIFKVSNRFSGVPDRFSGSGSGTDFTLKISRVEAEDLGVYYCFQGSHVPFTFGTGTKLEIKR | 0.37 nM | 5450 MFI | 1.14 nM | 26700 MFI | 2.31 OD450 | 2.52 OD450 | 1.57 OD450 | 2.61 OD450 | 0.38 OD450 | 0.13 OD450 | 0.09 OD450 |
| F2.152.3 human-murine chimeric antibody (antibody, human IgG1, kappa, V domains shown) VH: EVQLQQSGPELVKPGASVKMSCKASGYTFTDYYMTWVKQSHGKSLEWIGRVNPRNGDTTYNQKFEGRATLTLDKSLSTAFMQLNSLTSEDSAVYYCINSKGHFDYWGQGTTLTVSS VL: DVLMTQTPLSLPVSLGDQASISCRSSQSIVHSNGNTYLEWFLQKPGQSPKSLIYKVSNRFSGVPDRFSGSGSGTDFTLKISRVEAEDLGVYYCFQGSHVPPTFGAGTKLELKR | 0.23 nM | 4490 MFI | 0.73 nM | 2830 MFI | 2.28 OD450 | 2.43 OD450 | 1.45 OD450 | 2.43 OD450 | 0.32 OD450 | 0.13 OD450 | 0.1 OD450 |
